Source: patent publication US20030091564A1 (published 2003)

Key:
CD40/Fc fusion protein [1] = molecular target: T1, CD40/Fc fusion protein (human, UniProt P25942 21-193); assay: BIAcore biosensor, CD40/Fc captured by goat anti-human IgG1 Fc; first experiment
T1 construct: extracellular domain; also called C40/Fc; CD40Fc recombinant receptor
Procedure: (§1) This example illustrates the binding affinities of several different CD40-L constructs. Affinity experiments were conducted by biospecific interaction analysis (BIA) using a biosensor, an instrument that combines a biological recognition mechanism with a sensing device or transducer. An exemplary biosensor is BIAcore™, from Pharmacia Biosensor AB (Uppsala, Sweden; see Fägerstam L. G., Techniques in Protein Chemistry II, ed. J. J. Villafranca, Acad. Press, NY, 1991). BIAcore™ uses the optical phenomenon surface plasmon resonance (Kretschmann and Raether, Z. Naturforschung, Teil. A 23:2135, 1968) to monitor the interaction of two biological molecules.
(§2) The biosensor chips were coated with goat anti-human IgG₁ Fc, which was used to bind CD40/Fc (prepared as described in Example 1) to the chip. The different constructs of CD40-L were then added at increasing concentrations; the chip was regenerated between the different constructs by the addition of sodium hydroxide. Two separate experiments were performed. In the first, the binding of a dimeric human CD40-L (Example 14), trimeric human CD40-L (Example 15), dimeric murine CD40-L (prepared substantially as described in Example 14 for human CD40-L/FC) and trimeric murine CD40-L (prepared substantially as described for the human CD40-L in Example 15) were compared. In the second experiment, the binding of trimeric human CD40-L was compared to the binding of two different preparations of monomeric human CD40-L prepared as described in Example 18. The resultant data were analyzed to determine the affinity and association rate constants of the different CD40-L constructs. Results are shown in Table 12 below, and in FIGS. 18 and 19.

CD40/Fc fusion protein [2] = molecular target: T1, CD40/Fc fusion protein; assay: BIAcore biosensor, CD40/Fc captured by goat anti-human IgG1 Fc; first experiment; K2 (site 2)
Procedure: as §1, §2

CD40/Fc fusion protein [3] = molecular target: T1, CD40/Fc fusion protein; assay: BIAcore biosensor, CD40/Fc captured by goat anti-human IgG1 Fc; second experiment; K1 (site 1)
Procedure: as §1
(§3) The biosensor chips were coated with goat anti-human IgG₁ Fc, which was used to bind CD40/Fc (prepared as described in Example 1) to the chip. The different constructs of CD40-L were then added at increasing concentrations; the chip was regenerated between the different constructs by the addition of sodium hydroxide. Two separate experiments were performed. […] The resultant data were analyzed to determine the affinity and association rate constants of the different CD40-L constructs. […]

CD40/Fc fusion protein [4] = molecular target: T1, CD40/Fc fusion protein; assay: BIAcore biosensor, CD40/Fc captured by goat anti-human IgG1 Fc; second experiment; K2 (site 2)
Procedure: as §1, §3

CD40/Fc fusion protein [5] = molecular target: T1, CD40/Fc fusion protein; assay: BIAcore biosensor, CD40/Fc captured by goat anti-human IgG1 Fc; second experiment
Procedure: as §1, §3

CD40/Fc fusion protein [6] = molecular target: T1, CD40/Fc fusion protein; assay: BIAcore biosensor, CD40/Fc captured by goat anti-human IgG1 Fc; first experiment; K1 (site 1)
Procedure: as §1, §2

CD40/Fc fusion protein [7] = molecular target: T1, CD40/Fc fusion protein; assay: biosensor assay substantially as in Example 22; yeast-expressed protein
Procedure: as §2
Mutant 18PP had only a single mutation in the molecule, which was sufficient to affect secretion in yeast. Mutant 41 had two mutations, both of which were in the isoleucine residues of the zipper domain. The mutations in the zipper improve secretion from yeast without apparent effect on activity.

CD40 on cells = CD40 on cells (UniProt P25942 21-277, limits assumed); assay: cell-based or functional assay
CD40 on cells, sequence (P25942 21-277 limits assumed): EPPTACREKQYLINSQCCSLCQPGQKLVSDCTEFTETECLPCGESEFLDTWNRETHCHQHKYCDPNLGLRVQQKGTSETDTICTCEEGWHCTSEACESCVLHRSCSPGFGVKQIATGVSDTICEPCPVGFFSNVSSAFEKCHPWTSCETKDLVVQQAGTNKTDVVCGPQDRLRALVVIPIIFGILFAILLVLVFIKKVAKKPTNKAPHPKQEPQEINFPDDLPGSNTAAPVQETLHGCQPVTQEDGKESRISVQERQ

T1 sequence (P25942 other isoform, or with tags, fused parts or gaps limits assumed): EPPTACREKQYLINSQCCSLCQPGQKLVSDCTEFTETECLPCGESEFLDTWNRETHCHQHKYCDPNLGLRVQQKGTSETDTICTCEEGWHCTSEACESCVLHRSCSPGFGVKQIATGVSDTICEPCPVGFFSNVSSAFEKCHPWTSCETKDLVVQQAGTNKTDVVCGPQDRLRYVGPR

| Site 1 (mol/mol CD40/Fc) (CD40/Fc fusion protein [1]) | Site 2 (mol/mol CD40/Fc) (CD40/Fc fusion protein [1]) | Ka (CD40/Fc fusion protein [2]) | Ka (CD40/Fc fusion protein [3]) | Ka (CD40/Fc fusion protein [4]) | Site 2 (mol/mol CD40/Fc) (CD40/Fc fusion protein [5]) | Ka (CD40/Fc fusion protein [6]) | Ka (CD40/Fc fusion protein [7]) | B-cell proliferation (U/µg), Experiment 2 (CD40 on cells) | Binder |
| --- | --- | --- | --- | --- | --- | --- | --- | --- | --- |
| 0.04 mol/mol CD40/Fc | 0.68 mol/mol CD40/Fc | 7.5e+07 M⁻¹ | 6.6e+08 M⁻¹ | 2.6e+07 M⁻¹ | 0.41 mol/mol CD40/Fc | 5e+09 M⁻¹ |  |  | trimeric human CD40-L (ligand, Leader left out; also called Human Trimer; CD40-L trimer) not shown |
| 0.02 mol/mol CD40/Fc | 0.44 mol/mol CD40/Fc | 1.6e+08 M⁻¹ |  |  |  | 6e+10 M⁻¹ |  |  | trimeric murine CD40-L (ligand, also called Murine Trimer; muCD40LT) not shown |
|  |  |  |  |  |  |  | 7.7e+07 M⁻¹ | 15 U/µg | wild type CD40 ligand/zipper domain fusion protein expressed in yeast (ligand, also called WT) not shown |

Further lines, the binder ahead of its results:

| Binder | Site 1 (mol/mol CD40/Fc) (CD40/Fc fusion protein [1]) | Site 2 (mol/mol CD40/Fc) (CD40/Fc fusion protein [1]) | Ka (CD40/Fc fusion protein [2]) | Ka (CD40/Fc fusion protein [3]) | Ka (CD40/Fc fusion protein [4]) | Site 2 (mol/mol CD40/Fc) (CD40/Fc fusion protein [5]) | Ka (CD40/Fc fusion protein [6]) | Ka (CD40/Fc fusion protein [7]) | B-cell proliferation (U/µg), Experiment 2 (CD40 on cells) |
| --- | --- | --- | --- | --- | --- | --- | --- | --- | --- |
| CD40-L/FC2 soluble CD40-L/Fc fusion protein (Fc fusion, also called dimeric human CD40-L; Human Dimer) DYKDDDDKRSCDKTHTCPPCPAPELLGGPSVFLFPPKPKDTLMISRTPEVTCVVVDVSHEDPEVKFNWYVDGVEVHNAKTKPREEQYNSTYRVVSVLTVLHQDWLNGKEYKCKVSNKALPAPIEKTISKAKGQPREPQVYTLPPSRDELTKNQVSLTCLVKGFYPSDIAVEWESNGQPENNYKTTPPVLDSDGSFFLYSKLTVDKSRWQQGNVFSCSVMHGGGGSGGGGSGGGGSSSDKIEDERNLHEDFVFMKTIQRCNTGERSLSLLNCEEIKSQFEGFVKDIMLNKEETKKENSFEMQKGDQNPQIAAHVISEASSKTTSVLQWAEKGYYTMSNNLVTLENGKQLTVKRQGLYYIYAQVTFCSNREASSQAPFIASLCLKSPGRFERILLRAANTHSSAKPCGQQSIHLGGVFELQPGASVFVNVTDPSQVSHGTGFTSFGLLKL | 0.013 mol/mol CD40/Fc | 0.049 mol/mol CD40/Fc | 7e+08 M⁻¹ |  |  |  | 1.6e+11 M⁻¹ |  |  |
| dimeric murine CD40-L (Fc fusion, not shown: a dimerising Fc or GST, the whole entry is named; also called Murine Dimer) HRRLDKVEEEVNLHEDFVFIKKLKRCNKGEGSLSLLNCEEMRRQFEDLVKDITLNKEEKKENSFEMQRGDEDPQIAAHVVSEANSNAASVLQWAKKGYYTMKSNLVMLENGKQLTVKREGLYYVYTQVTFCSNREPSSQRPFIVGLWLKPSSGSERILLKAANTHSSSQLCEQQSVHLGGVFELQAGASVFVNVTEASQVIHRVGFSSFGLLKL | 0.05 mol/mol CD40/Fc | 0.14 mol/mol CD40/Fc |  |  |  |  |  |  |  |
